Results reported in publication PMC4161437, “Structural Correlates of Rotavirus Cell Entry” (PLoS Pathogens, 2014).

Legend:
[1] = target: T1, rhesus rotavirus (RRV) VP4 hydrophobic-loop mutant V391D, recombinant (rhesus rotavirus (RRV; G3 serotype), UniProt P12473 1-776, V391D); experiment: co-sedimentation; recoating: VP4 added to purified DLPs in at least 5-fold excess at pH 5.2 (sodium acetate), 1.5 h at room temperature; then VP7 in at least 3-fold molar excess with calcium, 30 min; recoated particles separated from excess components by cesium chloride gradient centrifugation; SDS-PAGE and fluorescence imaging of the purified particles; details: both partners purified
T1 construct: VP4 of rhesus rotavirus (RRV; G3 serotype) with V391D in a hydrophobic loop of VP5*; also called V391D VP4; VP4 fusion-loop mutant; source: baculovirus-infected insect cells, purified (AmSO4 precipitation, Phenyl HP, HiTrap Q, S200)

[2] = target: T2, rhesus rotavirus (RRV) outer-layer protein VP4, recombinant, wild type (rhesus rotavirus (RRV; G3 serotype), UniProt P12473 1-776, amine-specific Atto dye in some preparations (dye combinations varied)); experiment: as above; details: both partners purified
T2 construct: VP4, outer capsid spike protein of rhesus rotavirus (RRV; G3 serotype); recombinant, not cleaved by trypsin when added to DLPs; Recoated particles were treated with trypsin (cleavage to VP8* and VP5*) only after recoating; also called WT VP4; VP4 wt; source: baculovirus-infected insect cells, purified (AmSO4 precipitation, Phenyl HP, HiTrap Q, S200)

B1: rhesus rotavirus (RRV) outer-layer glycoprotein VP7, recombinant, wild type (natural protein)
chain: QNYGINLPITGSMDTAYANSTQEETFLTSTLCLYYPTEAATEINDNSWKDTLSQLFLTKGWPTGSVYFKEYTDIASFSVDPQLYCDYNVVLMKYDATLQLDMSELADLILNEWLCNPMDITLYYYQQTDEANKWISMGSSCTIKVCPLNTQTLGIGCLTTDTATFEEVATAEKLVITDVVDGVNHKLDVTTATCTIRNCKKLGPRENVAVIQVGGSDVLDITADPTTAPQTERMMRINWKKWWQVFYTVVDYVNQIIQAMSKRSRSLNSAAFYYRI
modifications: amine-specific Atto dye in some preparations (dye combinations varied)
notes: VP7, outer capsid glycoprotein of rhesus rotavirus (RRV; G3 serotype); Ca2+-stabilized trimer; also called WT VP7; VP7 wt
- binding result [1]: binds
- binding result [2]: binds
